Where a chain is given by its changes, count along the chain named. Names may count otherwise. Each block holds one molecule with its values, some of them ahead of it.
How the values were obtained:
human IL-18BP = target: T1, human IL-18BP (Homo sapiens, UniProt O95998); experiment: IL-18BP binding AlphaLISA assay (Example 4 / 17B); conditions: IL-18 binding protein AlphaLISA
T1 sequence (O95998 31-194): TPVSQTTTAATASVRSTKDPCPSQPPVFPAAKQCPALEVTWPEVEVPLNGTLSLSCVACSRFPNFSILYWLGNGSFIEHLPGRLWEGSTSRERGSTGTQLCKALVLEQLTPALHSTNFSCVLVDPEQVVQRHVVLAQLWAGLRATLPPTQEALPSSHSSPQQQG
Method: A human IL-18BP AlphaLISA Assay Kit is used to determine the binding affinity of each immunocytokine and IL-18 variant for IL-18BP, which detected the presence of free form IL-18BP.
Sixteen three-fold serial dilutions of IL-18 analytes are prepared in aMEM medium supplemented with 20% FCS, Glutamax, and 25 μM β-mercaptoethanol in the presence of 5 ng/mL of His-tagged human IL-18BP. Final IL-18 analytes concentration range from 2778 nM to 0.2 pM.
After 1 hr incubation at room temperature, free IL-18BP levels are measured using a […]. In a 384 well OPTIplate, 5 μL of 5× Anti-IL-18BP acceptor beads are added to 7.5 μL of an IL-18/IL-18BP mix. After 30 min incubation at room temperature with shaking, 5 μL of biotinylated Anti-IL-18BP antibodies are added to each well. The plate is incubated further for 1 hr at room temperature. Under subdued light, 12.5 μL of 2× streptavidin (SA) donor beads are pipetted into each well, and the wells are incubated with shaking for an additional 30 min at room temperature. The AlphaLisa signal is then measured on an Enspire plate reader with 680 and 615 nm as excitation and emission wavelengths, respectively. The dissociation constant (KD) is calculated based on a variable slope, four parameter analysis using GraphPad PRISM software.
17B—IL-18 BP AlphaLISA assay—An IL-18 binding protein AlphaLISA experiment substantially as described in Example 4 was performed on IL-18 polypeptide which can be incorporated into immunocytokine compositions as provided herein to assess ability to bind to IL-18BP.

[1] = system: PD-1 positive (transduced) KG-1 cells; experiment: IFN gamma secretion assay in PD-1 transduced KG-1 cells (Example 11); format: cell-based, human; conditions: ratio of EC50 in PD-1 positive and parental KG-1 cells
Method: The KG-1 cell line was used to generate a PD-1 expressing cell line and furthermore, to measure IFNγ release upon incubation with TL-18 variants and corresponding TL-18 immunocytokines.
PD-1 expressing cell line generation: Briefly, KG-1 cells were transduced using lentiviral particles carrying the human PD-1 gene (PDCD1 NM_005018; Origene, CAT #: RC210364L3V) at a MOI (Multiplicity of Infection) of 30. Spinfection was performed at 1260 g during 90 min at 37° C. in the presence of 5 μg/ml of Polybrene and 10 mM of HEPES in complete culture media (RPMI, 10% FBS, 1% L-Glutamine). […]
IFNγ release was assessed in PD-1 positive (transduced) KG-1 cells, as well as in the parental PD-1 negative cells. […] The lowest concentration assessed was 0.05 fM. After incubation, IFNγ release was measured using the LEGENDplex custom human mix and match KIT (Biolegend LEGENDplex™ Human IFN-γ Capture Bead B5, 13×#740942, LEGENDplex™ P 1 Essential Immune Response Panel Detection Abs, #740931, LEGENDplex™ Buffer Set A #740368). […] Fluorescence measurements were done with a Quanteon Flow Cytometer from Acea Biosciences. For analysis, MFI values (median fluorescence intensity) were exported and plotted against concentrations used. The EC50 values (half maximal effective concentration) were calculated based on a variable slope and four parameter analysis using GraphPad PRISM software version 9.

[2] = target: T2, human IL-18 binding protein isoform a (IL-18BPa) (Homo sapiens, UniProt O95998); experiment: Cellular IL-18 Binding protein resistance assay in NK-92 cells (Example 13); format: cell-based; conditions: NK92 cells, IL-18 analyte 1 nM final, IL-18BPa titrated, 1 ng/ml IL-12; read-out: IC50 IL-18BP-mediated inhibition of IFNγ secretion
T2 sequence (O95998 31-194): T1 sequence (O95998 31-194)
Method: The NK cell line NK-92 derived from a patient with lymphoma (ATCC, Cat #CRL-2407) was cultured in aMEM medium supplemented with 20% FCS-Glutamax, 25 μM B-mercaptoEthanol, and 100 IU/ml of recombinant Human Interleukin-2 (TL-2). On the day of experiment, cells were harvested and washed with aMEM medium without IL-2. After counting, cells were seeded at 100 000 cells/well in a 384 well titer plate and incubated at 37° C./5% CO2. Sixteen 2-fold serial dilutions of Fc fused human IL-18 binding protein isoform a (IL-18BPa; R&D systems, Cat #119-BP) were prepared in aMEM medium-1 ng/ml IL-12 containing 2 nM of each IL-18 variants and were added to the NK-92 cells. Final IL-18 analytes concentration was 1 nM and final IL-18BPa concentrations ranged from to 566 nM down to 17 pM.
After 16-20 h incubation at 37° C./5% CO2, 5 μl of supernatant were carefully transferred to a 384 microwells OPTIplate (Perkin Elmer; Cat #6007270) and Interferon-gamma (IFNγ) levels measured using the Human IFNγ AlphaLISA Assay Kit (Perkin Elmer, Cat #AL217C). […] AlphaLisa signal was then measured on an Enspire plate reader (Perkin Elmer) using 680 and 615 nm as excitation and emission wavelengths respectively. Half maximal inhibitory concentration (IC50) was calculated based on a variable slope, four parameter analysis using GraphPad PRISM software.

B3: SEQ ID NO: 30: IL-18 polypeptide: E6K, V11I, C38A, K53A, T63A, C76A, C127A (protein)
chain: YFGKLKSKLSIIRNLNDQVLFIDQGNRPLFEDMTDSDARDNAPRTIFIISMYADSQPRGMAVAISVKCEKISTLSAENKIISFKEMNPPDNIKDTKSDIIFFQRSVPGHDNKMQFESSSYEGYFLAAEKERDLFKLILKKEDELGDRSIMFTVQNED
PD-1^pos/PD-1^neg EC50 ratio [1]: 1.336 | IC50 [2]: 0.488 µM

B6: C182: IL-18 polypeptide: E6K, V11I, C38A, K53A, T63A, C76A, C127A, V153Y (protein)
chain: B3 chain with V153Y
Kd (human IL-18BP): > 2.8 µM

B7: SEQ ID NO: 69: IL-18 polypeptide: E6K, V11I, C38A, M51G, K53A, T63A, C76A, C127A (protein)
chain: B3 chain with M51G
Kd (human IL-18BP): > 2.8 µM

B8: SEQ ID NO: 72: IL-18 polypeptide: N-terminal 4xG, E6K, V11I, C38A, K53A, T63A, C76A, C127A (protein)
chain: GGGGYFGKLKSKLSIIRNLNDQVLFIDQGNRPLFEDMTDSDARDNAPRTIFIISMYADSQPRGMAVAISVKCEKISTLSAENKIISFKEMNPPDNIKDTKSDIIFFQRSVPGHDNKMQFESSSYEGYFLAAEKERDLFKLILKKEDELGDRSIMFTVQNED
modifications: N-terminal 4xG
notes: IL-18 polypeptide: N-terminal 4xG, E6K, V11I, C38A, K53A, T63A, C76A, C127A
Kd (human IL-18BP): > 2.8 µM

Further lines, results first:

Kd (human IL-18BP): > 2.8 µM
B1: SEQ ID NO: 71: IL-18 polypeptide: N-terminal G, E6K, V11I, C38A, K53A, T63A, C76A, C127A (protein)
chain: GYFGKLKSKLSIIRNLNDQVLFIDQGNRPLFEDMTDSDARDNAPRTIFIISMYADSQPRGMAVAISVKCEKISTLSAENKIISFKEMNPPDNIKDTKSDIIFFQRSVPGHDNKMQFESSSYEGYFLAAEKERDLFKLILKKEDELGDRSIMFTVQNED
modifications: N-terminal G
notes: IL-18 polypeptide: N-terminal G, E6K, V11I, C38A, K53A, T63A, C76A, C127A

Kd (human IL-18BP): > 2.8 µM
B2: SEQ ID NO: 70: IL-18 polypeptide: N-terminal G, E6K, V11I, C38A, M51G, K53A, T63A, C76A, C127A (protein)
chain: B1 chain with M52G
modifications: N-terminal G
notes: IL-18 polypeptide: N-terminal G, E6K, V11I, C38A, M51G, K53A, T63A, C76A, C127A

Kd (human IL-18BP): > 2.8 µM
B4: C179: IL-18 polypeptide: E6K, K8E, V11I, C38A, K53A, T63A, C76A, Q103R, C127A (protein)
chain: B3 chain with K8E, Q103R

Kd (human IL-18BP): > 2.8 µM
B5: C181: IL-18 polypeptide: E6K, V11I, C38A, K53A, T63A, C76A, C127A, V153E (protein)
chain: B3 chain with V153E

— US12383631B2, “Immune antigen specific IL-18 immunocytokines and uses thereof” (Bright Peak Therapeutics AG, priority 2022, dated 2025)
